Series [1] addresses T1, CFP1 CXXC domain (Homo sapiens, UniProt Q9P0U4 161-222). The series can be described thus: ITC.
The target of series [2] is T1, CFP1 CXXC domain. The series can be described thus: crystal structure.
The target in series [3] is T1, CFP1 CXXC domain. The series can be described thus: EMSA. (Mobility shift assays separate free from complexed probe on a gel.)
Series [4] has as its target CFP1 CXXC Y216A (Homo sapiens, UniProt Q9P0U4 161-222, Y216A). The series can be described thus: ITC. Background: Isothermal titration calorimetry measures the heat released or taken up as one component is titrated into another.
Series [5] addresses CFP1 CXXC domain, longer construct (Homo sapiens, UniProt Q9P0U4 152-222). The series can be described thus: ITC.
Series [6] deals with CFP1 CXXC R213A (Homo sapiens, UniProt Q9P0U4 161-222, R213A). The series can be described thus: ITC.
Chain of CFP1 CXXC R213A (Q9P0U4 161-222 R213A): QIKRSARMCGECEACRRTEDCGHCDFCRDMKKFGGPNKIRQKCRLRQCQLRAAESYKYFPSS

As usually defined, the Kd is a measure of binding affinity in units of concentration.

T1 sequence (Q9P0U4 161-222): as the sequence (Q9P0U4 161-222 R213A) above, with A53R counted along it
Chain of CFP1 CXXC domain, longer construct (Q9P0U4 152-222): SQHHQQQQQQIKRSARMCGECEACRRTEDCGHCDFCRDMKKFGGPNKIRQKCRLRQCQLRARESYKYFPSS
Chain of CFP1 CXXC Y216A (Q9P0U4 161-222 Y216A): as the sequence (Q9P0U4 161-222 R213A) above, with A53R, Y56A counted along it

B1: ACGG (dsDNA)
DNA 1: GCCAACGGTGGC
DNA 2: GCCACCGTTGGC
Take B1: in series [1], the Kd amounted to 2.5 ± 0.2 µM.

B2: GCGG (dsDNA)
DNA 1: GCCAGCGGTGGC
DNA 2: GCCACCGCTGGC
B2 registered a dissociation constant Kd in series [1] of 3 ± 0.2 µM. The Kd values of the last two molecules are within 1.5-fold of each other.

B3: TCGA (dsDNA)
DNA 1: GCCATCGATGGC
DNA 2: GCCATCGATGGC
Regarding B3, the binding result in series [2] is on record as “binds”.

B4: CCGG2 (dsDNA)
DNA 1: GCCCCCGGGGGC
DNA 2: GCCCCCGGGGGC
With B4, the Kd in series [1] stood at 4.4 ± 0.3 µM.

B5: GC (GGCC), no CpG (dsDNA)
DNA 1: GCCAGGCCTGGC
DNA 2: GCCAGGCCTGGC
As for B5, the binding result in series [3] was “no binding”.

B6: TCGT (dsDNA)
DNA 1: GCCATCGTTGGC
DNA 2: GCCAACGATGGC
B6: the binding result in series [2] is reported as “binds”.

B7: CCGG1 (dsDNA)
DNA 1: GCCACCGGTGGC
DNA 2: GCCACCGGTGGC
B7: the Kd in series [1] came out at 3.5 ± 0.3 µM; in series [4], 11 ± 2 µM; in series [5] it was 2.7 ± 0.3 µM; in series [6] it was 179 ± 30 µM.

B8: ACGT (dsDNA)
DNA 1: GCCAACGTTGGC
DNA 2: GCCAACGTTGGC
Turning to B8, in series [2], the binding result is on record as “binds”.

These data come from PMC3072069.
